Patent US20250197482A1

Experiments:
[1] = target: HIV-1 Env of strain WITO.33 (Env-pseudotyped virus) (HIV-1)
[2] = target: JRFL soluble Env trimer (clade B), stabilized in the prefusion-closed conformation (HIV-1); test: ELISA, lectin-captured trimer, expression supernatant, single point, OD 450 nm
[3] = target: K169V variant of CAP256 soluble Env trimer (HIV-1); test: as above
[4] = target: CAP256 soluble Env trimer (clade C), stabilized in the prefusion-closed conformation (HIV-1); test: as above
[5] = target: 426C-WITO soluble Env trimer (clade B), stabilized in the prefusion-closed conformation (HIV-1); test: ELISA, lectin-captured trimer, expression supernatant, single point, OD 450 nm, column 426c-WITO-degly3

**Q.** VRC01 (antibody) was tested. Which % neutralization, single point, Env-pseudotyped virus on TZM-bl [1] did it give?
**A.** 0%

**Q.** What about the % neutralization, single point, Env-pseudotyped virus on TZM-bl (CAP256 wk34c80 (HIV-1)) of the same substance?
**A.** 100%

**Q.** And the ELISA binding [2]?
**A.** 2.29

**Q.** And the ELISA binding [3]?
**A.** 2.65

**Q.** What about the ELISA binding [4] of the same substance?
**A.** 2.31

**Q.** What about the ELISA binding [5] of the same substance?
**A.** 2.53
